Values of other authors in paper PMC4472561 (The FEBS journal, 2015).

Legend:
[1] = system: CD8^+ cytotoxic effector memory T cells; settings: in words; ref [25]
neural progenitor cells = settings: in words; ref [24]
Kv1.1 = Kv1.1 (UniProt Q09470)
Chain of UniProt Q09470 (Q09470 whole entry): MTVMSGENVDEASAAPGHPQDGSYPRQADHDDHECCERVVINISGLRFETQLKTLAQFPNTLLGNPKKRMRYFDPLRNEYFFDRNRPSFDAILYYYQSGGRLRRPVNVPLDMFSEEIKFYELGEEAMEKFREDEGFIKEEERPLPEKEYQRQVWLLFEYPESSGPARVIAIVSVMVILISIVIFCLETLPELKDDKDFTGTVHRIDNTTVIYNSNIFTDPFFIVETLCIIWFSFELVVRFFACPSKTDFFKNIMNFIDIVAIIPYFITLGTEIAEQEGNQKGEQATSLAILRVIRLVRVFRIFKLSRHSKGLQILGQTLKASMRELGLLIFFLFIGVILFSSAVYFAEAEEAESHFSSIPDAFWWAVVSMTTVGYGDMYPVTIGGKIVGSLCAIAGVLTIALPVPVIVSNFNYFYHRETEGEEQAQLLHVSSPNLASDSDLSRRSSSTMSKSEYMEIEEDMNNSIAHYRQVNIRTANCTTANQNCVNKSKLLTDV

Row | Substance | proliferation of CD8+ cytotoxic effector memory T cells and secretion of granzyme B [1] | differentiation of neural progenitor cells into neurons (neural progenitor cells) | Kd (Kv1.1) [nM]
1 | ChTx | blocked the proliferation of CD8^+ cytotoxic effector memory T cells and their secretion of granzyme B |  | 
2 | MgTx (TIINVKCTSPKQCLPPCKAQFGQSAGAKCMNGKCKCYPH; UniProt P40755 1-39, looked up) | blocked the proliferation of CD8^+ cytotoxic effector memory T cells and their secretion of granzyme B | increased the differentiation of neural progenitor cells into neurons and enhanced neuron-regeneration | 
3 | ShK (from UniProt P29187) |  |  | 0.016
